The target of the assay is recombinant human paraoxonase 2 (rPON2) (human) (UniProt Q15165). Description: SEC; Hi-Load 26/600 Superdex 75, renaturing buffer (20 mM Hepes pH 8.5, 0.5 mM CaCl2, 0.1% trehalose), 1.5 mL/min, pooled Ni-NTA fractions of refolded rPON2; calibrated with gel filtration markers; dimer to monomers. A general note: SEC sorts molecules by how far they enter the pores of the column.

For the substance “recombinant human paraoxonase 2 (rPON2) (from UniProt Q15165 1-354) (enzyme)”, the stoichiometry N (usually a count of units in the complex or per binding partner) amounted to 2.

The record behind these values is article PMC11173892.
